Reference: US20200339684A1 (published 2020)

T1: human CD83 on the cell surface (KM-H2, L428, FDCP1 and BB88 cells transfected with full length human CD83) (human, UniProt Q01151 20-205)
T1 sequence (looked up): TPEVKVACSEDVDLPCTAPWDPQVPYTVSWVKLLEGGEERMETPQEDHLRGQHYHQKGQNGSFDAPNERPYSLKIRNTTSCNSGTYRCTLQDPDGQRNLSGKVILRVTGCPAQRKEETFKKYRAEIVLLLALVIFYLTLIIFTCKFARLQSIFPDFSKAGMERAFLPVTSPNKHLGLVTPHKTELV

T2: recombinant human CD83 extracellular domain with His tag (hCD83ECD-His) (human, UniProt Q01151 20-144)
T2 construct: extracellular domain; Expressed in CHO cells and purified by IMAC; also called recombinant human CD83ECD-His; recombinant CD83; not shown: His tag
T2 sequence (looked up): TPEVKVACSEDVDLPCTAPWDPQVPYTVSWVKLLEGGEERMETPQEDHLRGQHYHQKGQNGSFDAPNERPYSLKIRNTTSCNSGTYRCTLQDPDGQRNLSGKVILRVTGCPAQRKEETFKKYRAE


Experiments:
[1] = molecular target: T1, human CD83 on the cell surface (KM-H2, …); assay: cell-based or functional assay
[2] = molecular target: T2, recombinant human CD83 extracellular …; assay: Biacore SPR, Fab
Method: (§1) Fab fragments were generated by papain digestion with Pierce Fab MicroFab Preparation Kit, as per the manufacturer's instructions except that the kit-provided Protein A resin was replaced with MAbSelect SuRE resin (Seldon et al., J. Biomol. Tech. 22: 50-2, 2011). Fab were diluted in HBS-EP buffer consisting of 10 mM Hepes, 150 mM Sodium Chloride, 3 mM EDTA, and 0.005% Polysorbate 20 (GE Healthcare). Diluted Fab were assessed for affinity using a BiaCore3000 (GE Healthcare) instrument equipped with a CMS chip coupled with 100 Resonance Units (RU) of hCD83ECD-His protein, using the Kinetic Analysis wizard protocol. Kinetic rates were estimated using BiaEvaluation Software (GE Healthcare) using the inbuilt 1:1 binding model with mass transfer limitations.
(§2) FIG. 7A graphically highlights these improvements of 3C12.C binding relative to 3C12.WT, as higher binding signal intensity (i.e., RU) is achieved using reduced concentrations of the VL shuffled variant during the […] Kₒₙ-dependent Association Phase. Similarly, a slower off-rate is observed for 3C12.C Fab during the Koff-dependent dissociation phase.

[3] = molecular target: T2, recombinant human CD83 extracellular …; assay: BiaCore SPR, Fab over immobilised hCD83ECD, 1:1 model with mass transfer
Method: as §1, §2

[4] = molecular target: T2, recombinant human CD83 extracellular …; assay: BiaCore SPR, Fab over immobilised hCD83ECD
Method: as §1

Row | Binder | ADCC potency in a chromium release assay, fold against 3C12.WT [1] [fold] | fold reduction in on-rate relative to 3C12 wildtype [2] [fold] | Kd [3] [nM] | koff [3] [s⁻¹] | kon [3] [M⁻¹ s⁻¹] | Kd [4] [nM] | koff [4] [s⁻¹] | kon [4] [M⁻¹ s⁻¹]
1 | 3C12.C IgG (affinity matured, VL shuffled variant of 3C12, human IgG1 kappa) (antibody, V domains shown) VH: EVQLQESGGGVVQPGRSLRLSCAASGFTFSSYAMHWVRQAPGKGLEWVAVISYDGSNKYYADSVKGRFTISRDNSKNTLYLQMNSLRAEDTAMYYCARHYYYGMDVWGQGTTLTVSS VL: EIVLTQSPSSLSASVGDRVTITCRASQGIRNYLAWYQQKPGKVPKLLIYATSTLQSGVPSRFSGSRSGTEFTLTISSLHPEDFATYYCQQVDRFPYTFGQGTKVELKR | > 25 |  |  |  |  |  |  | 
2 | 3C12.Kif IgG (3C12 produced in the presence of kifunensine, low-fucose IgG) (antibody, V domains shown, N-glycan without fucose (high mannose, predominantly GlcNAc2Man9), produced with 2 µg/mL kifunensine) VH: EVQLQESGGGVVQPGRSLRLSCAASGFTFSSYAMHWVRQAPGKGLEWVAVISYDGSNKYYADSVKGRFTISRDNSKNTLYLQMNSLRAEDTAMYYCARHYYYGMDVWGQGTTLTVSS VL: EIVMTQSPSLLSASLGDRVTITCRASQGIKNYFAWYQQRPGKAPKLLIYATSNLQSGVPSRFSGSGSGTEFTLTISSLQPEDFATYYCQQLGAYPLTFGGGTKLELKR | > 25 |  |  |  |  |  |  | 
3 | 3C12.C Fab fragment (Fab, V domains shown) VH: EVQLQESGGGVVQPGRSLRLSCAASGFTFSSYAMHWVRQAPGKGLEWVAVISYDGSNKYYADSVKGRFTISRDNSKNTLYLQMNSLRAEDTAMYYCARHYYYGMDVWGQGTTLTVSS VL: EIVLTQSPSSLSASVGDRVTITCRASQGIRNYLAWYQQKPGKVPKLLIYATSTLQSGVPSRFSGSRSGTEFTLTISSLHPEDFATYYCQQVDRFPYTFGQGTKVELKR |  |  | 6.1 | 0.0078 | 1.3e+06 |  |  | 

More lines, in order of falling Kd [3], values ahead:

Row | ADCC potency in a chromium release assay, fold against 3C12.WT [1] [fold] | fold reduction in on-rate relative to 3C12 wildtype [2] [fold] | Kd [3] [nM] | koff [3] [s⁻¹] | kon [3] [M⁻¹ s⁻¹] | Kd [4] [nM] | koff [4] [s⁻¹] | kon [4] [M⁻¹ s⁻¹] | Binder
4 |  |  | 130 | 0.12 | 900000 | 130 | 0.12 | 950000 | 3C12.WT Fab fragment (Fab, V domains shown, also called 3C12 Fab; wildtype 3C12 Fab) VH: EVQLQESGGGVVQPGRSLRLSCAASGFTFSSYAMHWVRQAPGKGLEWVAVISYDGSNKYYADSVKGRFTISRDNSKNTLYLQMNSLRAEDTAMYYCARHYYYGMDVWGQGTTLTVSS VL: EIVMTQSPSLLSASLGDRVTITCRASQGIKNYFAWYQQRPGKAPKLLIYATSNLQSGVPSRFSGSGSGTEFTLTISSLQPEDFATYYCQQLGAYPLTFGGGTKLELKR
5 |  | ~3 | 43 | 0.014 | 320000 |  |  |  | 3C12.B Fab fragment (Fab, V domains shown) VH: EVQLQESGGGVVQPGRSLRLSCAASGFTFSSYAMHWVRQAPGKGLEWVAVISYDGSNKYYADSVKGRFTISRDNSKNTLYLQMNSLRAEDTAMYYCARHYYYGMDVWGQGTTLTVSS VL: EVVMTQSPSFLSASIGDRVSITCRTSQGISNHLAWYQQKPGKAPKLLIYAASSLQSGVPSRFSGSGSGTDFTLTISSLQPEDIATYYCQQVNSYPYTFGQGTRLELKR
6 |  |  | 42 | 0.05 | 1.2e+06 |  |  |  | 3C12.E Fab fragment (Fab, V domains shown) VH: EVQLQESGGGVVQPGRSLRLSCAASGFTFSSYAMHWVRQAPGKGLEWVAVISYDGSNKYYADSVKGRFTISRDNSKNTLYLQMNSLRAEDTAMYYCARHYYYGMDVWGQGTTLTVSS VL: EIVLTQSPSSLSASVGDRVTITCRASQGISNYLAWYQQKPGKVPKLLIYAASTLQSGVPSRFSGSGSGTHFTLTISSLQPEDVATYYCQKCNSAPYTFGQGTKVELKR
7 |  |  | 25 | 0.027 | 1.1e+06 |  |  |  | 3C12.D Fab fragment (Fab, V domains shown) VH: EVQLQESGGGVVQPGRSLRLSCAASGFTFSSYAMHWVRQAPGKGLEWVAVISYDGSNKYYADSVKGRFTISRDNSKNTLYLQMNSLRAEDTAMYYCARHYYYGMDVWGQGTTLTVSS VL: EIQMTQSPSSLSASVGDRVTITCRASQGISSWLAWYQQKPGKAPKLLIYAASSLQSGVPSRFSGSGSGTEFTLTISSLQPDDFATYYCQKLSSYPYTFGGGTKVELKR
